From IntAct's records for PubMed 21765415 come the findings set out here.

B1: Inhibitor of nuclear factor kappa-B kinase subunit alpha (Homo sapiens), O15111 (parent)
chain: MERPPGLRPGAGGPWEMRERLGTGGFGNVCLYQHRELDLKIAIKSCRLELSTKNRERWCHEIQIMKKLNHANVVKACDVPEELNILIHDVPLLAMEYCSGGDLRKLLNKPENCCGLKESQILSLLSDIGSGIRYLHENKIIHRDLKPENIVLQDVGGKIIHKIIDLGYAKDVDQGSLCTSFVGTLQYLAPELFENKPYTATVDYWSFGTMVFECIAGYRPFLHHLQPFTWHEKIKKKDPKCIFACEEMSGEVRFSSHLPQPNSLCSLVVEPMENWLQLMLNWDPQQRGGPVDLTLKQPRCFVLMDHILNLKIVHILNMTSAKIISFLLPPDESLHSLQSRIERETGINTGSQELLSETGISLDPRKPASQCVLDGVRGCDSYMVYLFDKSKTVYEGPFASRSLSDCVNYIVQDSKIQLPIIQLRKVWAEAVHYVSGLKEDYSRLFQGQRAAMLSLLRYNANLTKMKNTLISASQQLKAKLEFFHKSIQLDLERYSEQMTYGISSEKMLKAWKEMEEKAIHYAEVGVIGYLEDQIMSLHAEIMELQKSPYGRRQGDLMESLEQRAIDLYKQLKHRPSDHSYSDSTEMVKIIVHTVQSQDRVLKELFGHLSKLLGCKQKIIDLLPKVEVALSNIKEADNTVMFMQGKRQKEIWHLLKIACTQSSARSLVGSSLEGAVTPQTSAWLPPTSAEHDHSLSCVVTPQDGETSAQMIEENLNCLGHLSTIIHEANEEQGNSMMNLDWSWLTE

Variants of B1 are the subject of this test. The note with it: with taxb1_human TAX1BP1, Q86VP1.
taxb1_human TAX1BP1, Q86VP1, sequence (Q86VP1 whole entry): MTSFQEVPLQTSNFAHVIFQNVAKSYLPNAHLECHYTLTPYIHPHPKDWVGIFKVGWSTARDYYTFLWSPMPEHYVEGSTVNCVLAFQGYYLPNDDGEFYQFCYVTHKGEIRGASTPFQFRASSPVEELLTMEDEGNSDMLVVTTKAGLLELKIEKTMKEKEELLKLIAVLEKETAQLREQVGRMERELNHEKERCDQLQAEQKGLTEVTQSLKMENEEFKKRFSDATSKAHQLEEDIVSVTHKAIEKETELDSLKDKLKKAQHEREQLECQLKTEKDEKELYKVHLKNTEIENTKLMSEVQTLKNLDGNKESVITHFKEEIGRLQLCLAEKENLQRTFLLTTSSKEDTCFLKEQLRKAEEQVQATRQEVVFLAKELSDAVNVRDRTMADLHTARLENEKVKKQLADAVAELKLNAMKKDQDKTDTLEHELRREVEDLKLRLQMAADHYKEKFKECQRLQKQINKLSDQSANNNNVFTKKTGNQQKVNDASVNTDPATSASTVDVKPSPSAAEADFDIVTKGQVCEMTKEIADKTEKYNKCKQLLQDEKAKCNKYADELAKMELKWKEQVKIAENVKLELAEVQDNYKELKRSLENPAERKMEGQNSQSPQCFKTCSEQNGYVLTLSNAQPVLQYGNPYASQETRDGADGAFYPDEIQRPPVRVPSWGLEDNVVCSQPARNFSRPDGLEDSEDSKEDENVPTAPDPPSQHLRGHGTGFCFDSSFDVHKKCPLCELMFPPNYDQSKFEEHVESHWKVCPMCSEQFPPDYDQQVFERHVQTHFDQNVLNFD
With K44M, the “effect of a mutation on the interaction” value was “disrupting interaction”.
